Results taken from PMC1888729, “Control of Pre-mRNA Splicing by the General Splicing Factors PUF60 and U2AF65”.

Experiments:
[1] = biological target: T1, PUF60 (short isoform PUF60S, HEK-293E-derived) (Homo sapiens, UniProt Q9UHX1-2 1-542); test: EMSA; with U2AF65/35; PUF60 binding enhanced, U2AF:RNA complex decreases; 25 mM Tris pH 7.5, 25 mM NaCl, 1 mM EDTA, 0.1 mg/ml tRNA, 0.5 mg/ml BSA, ~0.2 nM RNA, 60 min room temperature (6% native gel in cold room); footprints same plus 1 U/ml RNasin, 30 min, then 2.6 mg/ml tRNA with RNase 5 min; settings: protein: recombinant; label: 32P; single strand
[2] = biological target: U2AF65 (in U2AF65/35 heterodimer);U2AF35 (in U2AF65/35 heterodimer) (Homo sapiens;Homo sapiens, UniProt P26368;Q01081 1-475;1-240, |); test: EMSA; U2AF65/35 alone; 25 mM Tris pH 7.5, 25 mM NaCl, 1 mM EDTA, 0.1 mg/ml tRNA, 0.5 mg/ml BSA, ~0.2 nM RNA, 60 min room temperature (6% native gel in cold room); footprints same plus 1 U/ml RNasin, 30 min, then 2.6 mg/ml tRNA with RNase 5 min; settings: protein: recombinant;recombinant; tags: ;; copies: 1;1; label: 32P; single strand
[3] = biological target: T1, PUF60 (short isoform PUF60S, …); test: EMSA; PUF60 alone; 25 mM Tris pH 7.5, 25 mM NaCl, 1 mM EDTA, 0.1 mg/ml tRNA, 0.5 mg/ml BSA, ~0.2 nM RNA, 60 min room temperature (6% native gel in cold room); footprints same plus 1 U/ml RNasin, 30 min, then 2.6 mg/ml tRNA with RNase 5 min; settings: protein: recombinant; label: 32P; single strand

Measured: binding result

T1 sequence (Q9UHX1 other isoform, or with tags, fused parts or gaps): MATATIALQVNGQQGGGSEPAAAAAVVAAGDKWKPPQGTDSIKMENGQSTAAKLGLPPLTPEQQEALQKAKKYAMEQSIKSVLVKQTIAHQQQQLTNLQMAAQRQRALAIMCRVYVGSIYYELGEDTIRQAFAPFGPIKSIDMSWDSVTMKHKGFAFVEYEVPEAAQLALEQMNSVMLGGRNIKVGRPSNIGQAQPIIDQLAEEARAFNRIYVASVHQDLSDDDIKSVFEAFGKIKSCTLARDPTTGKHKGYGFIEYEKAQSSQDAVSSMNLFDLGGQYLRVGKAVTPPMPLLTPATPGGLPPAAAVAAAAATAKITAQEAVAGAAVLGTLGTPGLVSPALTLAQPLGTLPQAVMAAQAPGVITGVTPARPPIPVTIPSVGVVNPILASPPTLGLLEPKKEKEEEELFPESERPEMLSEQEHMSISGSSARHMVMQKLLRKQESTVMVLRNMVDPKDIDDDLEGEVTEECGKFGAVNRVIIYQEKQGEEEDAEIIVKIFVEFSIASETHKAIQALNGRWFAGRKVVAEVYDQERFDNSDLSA
U2AF65 (in U2AF65/35 heterodimer);U2AF35 (in U2AF65/35 heterodimer), sequence (P26368 whole entry, chain 1 of 2, canonical isoform): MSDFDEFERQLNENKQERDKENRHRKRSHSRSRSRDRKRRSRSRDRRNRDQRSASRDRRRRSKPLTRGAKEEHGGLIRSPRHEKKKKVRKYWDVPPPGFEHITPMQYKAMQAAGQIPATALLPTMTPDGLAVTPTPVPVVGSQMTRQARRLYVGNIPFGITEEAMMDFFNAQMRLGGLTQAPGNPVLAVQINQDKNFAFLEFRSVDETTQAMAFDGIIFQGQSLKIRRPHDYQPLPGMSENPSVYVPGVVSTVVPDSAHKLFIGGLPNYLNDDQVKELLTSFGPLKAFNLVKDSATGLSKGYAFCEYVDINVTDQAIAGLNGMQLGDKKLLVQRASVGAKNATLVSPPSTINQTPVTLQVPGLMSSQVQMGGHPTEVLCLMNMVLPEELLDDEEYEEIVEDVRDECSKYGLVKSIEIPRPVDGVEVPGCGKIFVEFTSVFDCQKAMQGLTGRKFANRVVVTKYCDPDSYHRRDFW
U2AF65 (in U2AF65/35 heterodimer);U2AF35 (in U2AF65/35 heterodimer), sequence (Q01081 whole entry, chain 2 of 2, canonical isoform): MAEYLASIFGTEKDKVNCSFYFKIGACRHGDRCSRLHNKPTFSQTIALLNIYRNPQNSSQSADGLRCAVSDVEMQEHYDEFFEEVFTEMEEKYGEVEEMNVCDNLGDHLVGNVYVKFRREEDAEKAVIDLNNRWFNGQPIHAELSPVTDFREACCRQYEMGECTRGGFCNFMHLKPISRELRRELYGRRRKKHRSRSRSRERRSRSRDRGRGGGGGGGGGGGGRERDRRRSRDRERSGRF

UUCGUGCUGACCCUGUCCCUUUUUUUUCCACAGC (ssRNA) [AdML 3' splice-site RNA, 34 nt]
binds: all assays above
